Laboratory results from patent US20160257732A1 (published 2016).
“And” between values parts separate entries of the source, which are not always exact repeats. Equal entries are not always repeated. Where two headings read alike, the source gives them in different places.

Assays:
Test in all cases: cell-based or functional assay
[1] = target: HA of swine-origin A/Minnesota/11/2010 H3N2 virus (influenza A virus)
[2] = target: HA of ca A/Sydney/5/97 (H3N2) (influenza A virus)
[3] = target: HA of ca A/Vietnam/1203/04 (H5N1) (influenza A virus)
[4] = target: HA of A/Kawasaki/9/86 (H1N1) (influenza A virus)
[5] = target: HA of ca A/teal/Hong Kong/W312/97 (H6N1) (influenza A virus)
[6] = target: HA of ca A/Japan/57 (H2N2) (influenza A virus)
[7] = target: HA of ca A/mallard/Alberta/89/85 (H6N2) (influenza A virus)
[8] = target: HA of ca A/Hong Kong/213/03 (H5N1) (influenza A virus)
[9] = target: HA of A/New Jersey/8/76 (H1N1) (influenza A virus)
[10] = target: HA of ca A/Perth/16/09 (H3N2) (influenza A virus)
[11] = target: HA of A/Victoria/361/11 (H3N2) (influenza A virus)
[12] = target: HA of ca A/New Caledonia/20/99 (H1N1) (influenza A virus)
[13] = target: HA of ca A/Texas/36/91 (H1N1) (influenza A virus)
[14] = target: T1, HA of ca A/chicken/Hong Kong/G9/97 (H9N2) (influenza A virus)
[15] = target: HA of ca A/Anhui/1/13 (H7N9) (influenza A virus)
[16] = target: T2, HA of ca A/Brit. Columbia/CN-6/04 (H7N3-LP) (influenza A virus)
[17] = target: HA of A/Fort Monmouth/1/47 (H1N1) (influenza A virus)
[18] = target: HA of ca A/Beijing/262/95 (H1N1) (influenza A virus)
[19] = target: HA of A/Hong Kong/8/68 (H3N2) (influenza A virus)
[20] = target: HA of A/Victoria/3/75 (H3N2) (influenza A virus)
[21] = target: HA of ca A/swine/Missouri/06 (H2N3) (influenza A virus)
[22] = target: HA of ca A/Netherlands/219/03 (H7N7) (influenza A virus)
[23] = target: HA of virus H1-BS10
[24] = target: HA of A/Wisconsin/67/05 (H3N2) (influenza A virus)
[25] = target: HA of ca A/Panama/2007/99 (H3N2) (influenza A virus)
[26] = target: HA of ca A/Sydney/5/97 (H3N2) (influenza A virus); remark: listed apart in the source
[27] = target: HA of ca A/Vietnam/1203/04 (H5N1) (influenza A virus); remark: listed apart in the source
[28] = target: HA of A/Kawasaki/9/86 (H1N1) (influenza A virus); remark: listed apart in the source
[29] = target: HA of ca A/teal/Hong Kong/W312/97 (H6N1) (influenza A virus); remark: listed apart in the source
[30] = target: HA of ca A/Hong Kong/213/03 (H5N1) (influenza A virus); remark: listed apart in the source
[31] = target: HA of A/Wisconsin/67/05 (H3N2) (influenza A virus); remark: listed apart in the source
[32] = target: HA of A/Wyoming/03/03 (H3N2) (influenza A virus)
[33] = target: HA of A/New Jersey/8/76 (H1N1) (influenza A virus); remark: listed apart in the source
[34] = target: HA of ca A/Perth/16/09 (H3N2) (influenza A virus); remark: listed apart in the source
[35] = target: HA of ca A/New Caledonia/20/99 (H1N1) (influenza A virus); remark: listed apart in the source
[36] = target: HA of ca A/Texas/36/91 (H1N1) (influenza A virus); remark: listed apart in the source
[37] = target: T1, HA of ca A/chicken/Hong Kong/G9/97 …; remark: listed apart in the source
[38] = target: T2, HA of ca A/Brit. Columbia/CN-6/04 …; remark: listed apart in the source
[39] = target: HA of A/Fort Monmouth/1/47 (H1N1) (influenza A virus); remark: listed apart in the source
[40] = target: HA of ca A/Beijing/262/95 (H1N1) (influenza A virus); remark: listed apart in the source
[41] = target: HA of A/Hong Kong/8/68 (H3N2) (influenza A virus); remark: listed apart in the source
[42] = target: HA of A/Victoria/3/75 (H3N2) (influenza A virus); remark: listed apart in the source
[43] = target: HA of ca A/swine/Missouri/06 (H2N3) (influenza A virus); remark: listed apart in the source
[44] = target: HA of ca A/Panama/2007/99 (H3N2) (influenza A virus); remark: listed apart in the source
[45] = target: HA of ca A/Netherlands/219/03 (H7N7) (influenza A virus); remark: listed apart in the source

B1: Antibody 12 (antibody, V domains shown)
VH: QVQLQQSGPGLVKPSQTLSLTCAISGDSVSSYNAVWNWIRQSPSRGLEWLGRTYYRSGWYNDYAESVKSRITINPDTSKNQFSLQLNSVTPEDTAVYYCARSGHITVFGVNVDAFDMWGQGTMVTVSS
VL: DIQMTQSPSSLSASVGDRVTITCRTSQSLSSYTHWYQQKPGKAPKLLIYAASSRGSGVPSRFSGSGSGTDFTLTISSLQPEDFATYYCQQSRTFGQGTKVEIK
Neutralizing activity IC50, swine-origin A/Minnesota/11/2010 [1]: 1.1 µg/mL and 1.2 µg/mL | Neutralization IC50, H3-Syd97 [2]: 1.56 µg/mL | Neutralization IC50, H5-VM04 [3]: 0.31 µg/mL | Neutralization IC50, H1-Kaw86 [4]: 0.28 µg/mL | Neutralization IC50, H6-HK97 [5]: 0.45 µg/mL | Neutralization IC50, H2-JP57 [6]: 0.35 µg/mL | Neutralization IC50, H6-AB85 [7]: 0.32 µg/mL | Neutralization IC50, H5-HK03 [8]: 0.17 µg/mL | Neutralization IC50, H1-NJ76 [9]: 0.12 µg/mL | Neutralization IC50, H3-Perth09 [10]: 0.25 µg/mL | Neutralization IC50, H3-VC11 [11]: 0.83 µg/mL | Neutralization IC50, H1-Ncal99 [12]: 0.61 µg/mL | Neutralization IC50, H1-TX91 [13]: 0.12 µg/mL | Neutralization IC50, H9-HK97 [14]: 0.31 µg/mL | Neutralization IC50, H7-ANU13 [15]: 2.56 µg/mL | Neutralization IC50, H7-BC04 [16]: 0.78 µg/mL | Neutralization IC50, H1-FM47 [17]: 0.28 µg/mL | Neutralization IC50, H1-BJ95 [18]: 1.31 µg/mL | Neutralization IC50, H3-HK68 [19]: 0.42 µg/mL | Neutralization IC50, H3-Vic75 [20]: 0.32 µg/mL | Neutralization IC50, H2-MO06 [21]: 0.53 µg/mL | Neutralization IC50, H7-NLD03 [22]: 0.83 µg/mL | Neutralization IC50, H1-BS10 [23]: 1.25 µg/mL

B2: Antibody 14 (antibody, V domains shown)
VH: QVQLQQSGPGLVKPSQTLSLTCAISGDSVSSNNAVWNWIRQSPSRGLEWLGRTYYRSKWYNDYAESVKSRITINPDTSKNQFSLQLNSVTPEDTAVYYCARSGHITVFGVNVDAFDMWGQGTTVTVSS
VL: DIQMTQSPSSLSASVGDRVTITCRTSQSLSSYTHWYQQKPGKAPKLLIYAASSRLSGVPSRFSGSGSGTDFTLTISSLQPEDFATYYCQQSRTFGQGTKVEIK
Neutralizing activity IC50, swine-origin A/Minnesota/11/2010 [1]: 1.4 µg/mL and 2.3 µg/mL | Neutralization IC50, H3-Syd97 [2]: 1.82 µg/mL | Neutralization IC50, H5-VM04 [3]: 0.33 µg/mL | Neutralization IC50, H1-Kaw86 [4]: 0.35 µg/mL | Neutralization IC50, H6-HK97 [5]: 0.26 µg/mL | Neutralization IC50, H2-JP57 [6]: 0.67 µg/mL | Neutralization IC50, H6-AB85 [7]: 0.26 µg/mL | Neutralization IC50, H5-HK03 [8]: 0.21 µg/mL | Neutralization IC50, H3-WI05 [24]: 1.19 µg/mL | Neutralization IC50, H1-NJ76 [9]: 0.11 µg/mL | Neutralization IC50, H3-Perth09 [10]: 0.47 µg/mL | Neutralization IC50, H3-VC11 [11]: 1.15 µg/mL | Neutralization IC50, H1-Ncal99 [12]: 0.67 µg/mL | Neutralization IC50, H1-TX91 [13]: 0.09 µg/mL | Neutralization IC50, H9-HK97 [14]: 0.44 µg/mL | Neutralization IC50, H7-ANU13 [15]: 2.12 µg/mL | Neutralization IC50, H7-BC04 [16]: 0.86 µg/mL | Neutralization IC50, H1-FM47 [17]: 0.44 µg/mL | Neutralization IC50, H1-BJ95 [18]: 2.09 µg/mL | Neutralization IC50, H3-HK68 [19]: 0.65 µg/mL | Neutralization IC50, H3-Vic75 [20]: 0.44 µg/mL | Neutralization IC50, H2-MO06 [21]: 0.65 µg/mL | Neutralization IC50, H3-Pa99 [25]: 4.36 µg/mL | Neutralization IC50, H7-NLD03 [22]: 1.16 µg/mL | Neutralization IC50, H1-BS10 [23]: 1.93 µg/mL

B3: Antibody 8 (antibody, V domains shown)
VH: QVQLQQSGPGLVKPSQTLSLTCVISGDTVSSNRATWNWMRQSPLRGLEWLGRTYYRSKWYNDYAVSVKSRVVINPDTSKNQVSLQLNTVTPDDSGVYFCARGGHITVFGVNIDAFDIWGLGTKVTVSS
VL: DIQMTQSPSSLSASVGDRVTISCRASQRLNSYLHWYQQTPGQAPKLLIYATSTLQSGVSPRFSGSGSGTDFTLTISSLQPEDVATYYCQLSRTFGHGTKVEIK
Neutralization IC50, H3-Syd97 [26]: > 50 µg/mL | Neutralization IC50, H5-VM04 [27]: 3.9 µg/mL | Neutralization IC50, H1-Kaw86 [28]: 2.11 µg/mL | Neutralization IC50, H6-HK97 [29]: 2.97 µg/mL | Neutralization IC50, H5-HK03 [30]: 1.82 µg/mL | Neutralization IC50, H3-WI05 [31]: > 50 µg/mL | Neutralization IC50, H3-Wy03 [32]: > 50 µg/mL | Neutralization IC50, H1-NJ76 [33]: 2.26 µg/mL | Neutralization IC50, H3-Perth09 [34]: > 50 µg/mL | Neutralization IC50, H1-Ncal99 [35]: 2.06 µg/mL | Neutralization IC50, H1-TX91 [36]: 0.7 µg/mL | Neutralization IC50, H9-HK97 [37]: 26.4 µg/mL | Neutralization IC50, H7-BC04 [38]: 14.7 µg/mL | Neutralization IC50, H1-FM47 [39]: 1.37 µg/mL | Neutralization IC50, H1-BJ95 [40]: 10.6 µg/mL | Neutralization IC50, H3-HK68 [41]: 2.82 µg/mL | Neutralization IC50, H3-Vic75 [42]: 3.83 µg/mL | Neutralization IC50, H2-MO06 [43]: 2.62 µg/mL | Neutralization IC50, H3-Pa99 [44]: > 50 µg/mL | Neutralization IC50, H7-NLD03 [45]: 12.8 µg/mL

B4: Antibody 6 (antibody, V domains shown)
VH: QVQLQQSGPGLVKPSQTLSLTCAISGDRVSSNSAVWNWIRQSPSRGLEWLGRTYYRSKWYYDYAESVKSRIVIDPDTSKNQVSLQLNSVTPEDSAIYYCARGGHITEFGLNIDAYDIWGQGAMVTVSS
VL: DIQMTQSPSSLSASVGDRVTISCRAQSLSSYLHWYQQKPGQPPKLLIYAATTLQSGVPSRFSGSGSGTDFTLTISTFQAEDVATYYCQQSRTFGQGTKVEIK
Neutralization IC50, H3-Syd97 [26]: 6.54 µg/mL | Neutralization IC50, H5-VM04 [27]: 8.87 µg/mL | Neutralization IC50, H1-Kaw86 [28]: 3.51 µg/mL | Neutralization IC50, H6-HK97 [29]: 3.23 µg/mL | Neutralization IC50, H5-HK03 [30]: 10.4 µg/mL | Neutralization IC50, H3-WI05 [31]: 6.76 µg/mL | Neutralization IC50, H3-Wy03 [32]: 4.7 µg/mL | Neutralization IC50, H1-NJ76 [33]: 2.6 µg/mL | Neutralization IC50, H3-Perth09 [34]: 5.03 µg/mL | Neutralization IC50, H1-Ncal99 [35]: 3 µg/mL | Neutralization IC50, H1-TX91 [36]: 2.2 µg/mL | Neutralization IC50, H9-HK97 [37]: 16.5 µg/mL | Neutralization IC50, H7-BC04 [38]: > 50 µg/mL | Neutralization IC50, H1-FM47 [39]: 3.04 µg/mL | Neutralization IC50, H1-BJ95 [40]: 20.9 µg/mL | Neutralization IC50, H3-HK68 [41]: 2.04 µg/mL | Neutralization IC50, H3-Vic75 [42]: 1.09 µg/mL | Neutralization IC50, H2-MO06 [43]: 2.9 µg/mL | Neutralization IC50, H3-Pa99 [44]: 25.8 µg/mL | Neutralization IC50, H7-NLD03 [45]: > 50 µg/mL
